Source: US20190077860A1 (EISAI R AND D MANAGEMENT, published 2019)

What was measured:
[1] = biological target: T1, human EphA4 extracellular region-SEAP-His protein (human, UniProt P54764 20-547); experiment: competition ELISA, competitor human Ephrin B3-Fc
T1 construct: also called hEphA4-SEAP-His
Experimental: Antibody A obtained in Example 1 was evaluated for its inhibitory activity against the binding between human EphA4 and its human ligand according to the following steps. Each well of a 96-well plate (Nunc) was coated with an anti-alkaline phosphatase antibody (Thermo Fisher Scientific). After incubation overnight at 4° C., each well was blocked with 1% BlockAce (DS Pharma Biomedical) at room temperature for 1 hour. After washing with 0.05% Tween 20/PBS (Thermo Fisher Scientific) three times, the human EphA4 extracellular region-SEAP-His protein obtained by the method of Example 1 was added (final concentration: 10 nM) to each well and incubated at room temperature for 1 hour. After washing three times, ligands and serially diluted antibody A (0, 0.003, 0.01, 0.03, 0.1, 0.3, 1, 3, 10, 30, 100, 300, 1000, and 3000 nM) or an EphA4 inhibitor KYL peptide ([…], 0, 0.003, 0.01, 0.03, 0.1, 0.3, 1, 3, 10, 30, 100, 300, 1000, and 3000 μM, its synthesis was outsourced to Toray Research Center) were added to each well. The ligands used were biotinylated human Ephrin A5-Fc chimera (R&D Systems, final concentration: 0.7 nM) and biotinylated human Ephrin B3-Fc chimera (R&D Systems, final concentration: 2.3 nM). […] The absorbance at 450 nm was read using a microplate reader (Molecular Devices or PerkinElmer). […]

[2] = biological target: rat EphA4 in rat hippocampal neurons (rat, UniProt D3ZZK3 20-986); experiment: cell-based or functional assay
[3] = biological target: mouse EphA4 extracellular region-SEAP-His protein (mouse); experiment: SPR (Biacore A100), antibody captured, EphA4-SEAP-His analyte
Experimental: The binding affinity of antibody A obtained in Example 1 for mouse and human EphA4 was determined by surface plasmon resonance (SPR) using Biacore A100 (GE Healthcare). First, a rat anti-mouse IgG₁ antibody produced with a conventional procedure by immunizing rat with a mouse IgG₁ antibody was immobilized on sensor chip CM5. The immobilization of the rat anti-mouse IgG1 antibody on sensor chip CM5 was performed by the amine coupling method using N-hydroxysuccinimide (NHS) and N-ethyl-N′-(3-dimethylaminopropyl)carbodiimide hydrochloride (EDC). Ethanolamine was used in blocking (the sensor chip and the reagents for immobilization were all manufactured by GE Healthcare). The antibody was diluted with a buffer solution for immobilization (10 mM sodium acetate, pH 4.5) into 1 to 2 μg/mL and immobilized on the sensor chip according to the protocol attached to Biacore A100. Antibody A was diluted with a running buffer solution HBS-EP (GE Healthcare, BR-1001-88), injected onto a flow cell for 120 seconds, and captured (amount of the antibody captured: approximately 70 to 100 RU). Subsequently, mouse or human EphA4 extracellular region-SEAP-His serially diluted in the range of 50, 25, 12.5, 6.3, 3.1, 1.6, 0.8, and 0 nM using HBS-EP was added to the sensor chip for 120 seconds. […]

[4] = biological target: T2, monkey EphA4 extracellular region-Fc-His protein (monkey; human); experiment: ELISA, EphA4 extracellular region-Fc-His (1 nM) captured on the plate, antibody A titrated, HRP anti-mouse IgG detection, OD 450 nm
T2 construct: used as culture supernatant
Experimental: (§1) Each well of a 96-well plate (Nunc) was coated with a […] (Jackson ImmunoResearch Laboratories). After incubation overnight at 4° C., each well was blocked with 1% BlockAce (Sumitomo Dainippon Pharma) at room temperature for 1 hour. After washing with 0.05% Tween 20/PBS (Nacalai Tesque) three times, the mouse, rat, monkey, or human EphA4 extracellular region-Fc-His protein was disseminated (final concentration: 1 nM) to each well and incubated at room temperature for 1 hour. After washing three times, a human IgG solution (100 μg/mL, Mitsubishi Pharma) and antibody A (0, 0.00128, 0.0064, 0.032, 0.16, 0.8, 4, and 20 μg/mL) were added to each well and incubated at room temperature for 1 hour. A horseradish peroxidase-labeled donkey anti-mouse IgG antibody (Jackson ImmunoResearch Laboratories) was added thereto and incubated at room temperature for 1 hour. After washing three times, a TMBZ (3,3′,5,5′-tetramethylbenzidine, Sigma-Aldrich) solution was added to each well. After confirmation of moderate color development, an equal amount of a reaction stopping solution (1N H₂SO₄, Wako Pure Chemical Industries) was added to each well. The absorbance at 450 nm was read using a microplate reader (PerkinElmer).

[5] = biological target: T3, mouse EphA4 extracellular region-Fc-His protein (mouse; human, UniProt Q03137 20-547); experiment: as above
T3 construct: used as culture supernatant
Experimental: as §1

[6] = biological target: T4, rat EphA4 extracellular region-Fc-His protein (rat; human, UniProt D3ZZK3 20-547); experiment: as above
T4 construct: range 20-547; used as culture supernatant
Experimental: as §1

[7] = biological target: T5, human EphA4 extracellular region-Fc-His protein (human, UniProt P54764 20-547); experiment: as above
T5 construct: used as culture supernatant
Experimental: as §1

T2 sequence (chain, as listed by the source): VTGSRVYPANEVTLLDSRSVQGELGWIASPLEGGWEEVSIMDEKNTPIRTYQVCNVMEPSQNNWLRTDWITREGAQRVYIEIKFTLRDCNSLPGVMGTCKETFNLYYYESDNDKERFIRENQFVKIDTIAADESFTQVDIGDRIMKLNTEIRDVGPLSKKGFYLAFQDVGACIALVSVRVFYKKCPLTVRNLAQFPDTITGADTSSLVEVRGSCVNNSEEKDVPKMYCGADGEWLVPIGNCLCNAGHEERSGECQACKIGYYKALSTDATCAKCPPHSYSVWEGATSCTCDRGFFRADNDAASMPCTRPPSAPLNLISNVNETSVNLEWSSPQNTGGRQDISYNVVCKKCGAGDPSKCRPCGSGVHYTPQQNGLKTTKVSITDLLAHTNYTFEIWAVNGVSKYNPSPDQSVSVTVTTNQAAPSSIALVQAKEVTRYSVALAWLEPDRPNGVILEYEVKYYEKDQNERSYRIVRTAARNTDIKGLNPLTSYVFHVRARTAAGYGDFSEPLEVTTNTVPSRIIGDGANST
T3 sequence (Q03137 20-547): as the sequence (chain, as listed by the source) above, with P59A, N121S, V124G, R250Q, S251N, T270S, K378R counted along it
mouse EphA4 extracellular region-SEAP-His protein (mouse), sequence (chain, as listed by the source limits assumed): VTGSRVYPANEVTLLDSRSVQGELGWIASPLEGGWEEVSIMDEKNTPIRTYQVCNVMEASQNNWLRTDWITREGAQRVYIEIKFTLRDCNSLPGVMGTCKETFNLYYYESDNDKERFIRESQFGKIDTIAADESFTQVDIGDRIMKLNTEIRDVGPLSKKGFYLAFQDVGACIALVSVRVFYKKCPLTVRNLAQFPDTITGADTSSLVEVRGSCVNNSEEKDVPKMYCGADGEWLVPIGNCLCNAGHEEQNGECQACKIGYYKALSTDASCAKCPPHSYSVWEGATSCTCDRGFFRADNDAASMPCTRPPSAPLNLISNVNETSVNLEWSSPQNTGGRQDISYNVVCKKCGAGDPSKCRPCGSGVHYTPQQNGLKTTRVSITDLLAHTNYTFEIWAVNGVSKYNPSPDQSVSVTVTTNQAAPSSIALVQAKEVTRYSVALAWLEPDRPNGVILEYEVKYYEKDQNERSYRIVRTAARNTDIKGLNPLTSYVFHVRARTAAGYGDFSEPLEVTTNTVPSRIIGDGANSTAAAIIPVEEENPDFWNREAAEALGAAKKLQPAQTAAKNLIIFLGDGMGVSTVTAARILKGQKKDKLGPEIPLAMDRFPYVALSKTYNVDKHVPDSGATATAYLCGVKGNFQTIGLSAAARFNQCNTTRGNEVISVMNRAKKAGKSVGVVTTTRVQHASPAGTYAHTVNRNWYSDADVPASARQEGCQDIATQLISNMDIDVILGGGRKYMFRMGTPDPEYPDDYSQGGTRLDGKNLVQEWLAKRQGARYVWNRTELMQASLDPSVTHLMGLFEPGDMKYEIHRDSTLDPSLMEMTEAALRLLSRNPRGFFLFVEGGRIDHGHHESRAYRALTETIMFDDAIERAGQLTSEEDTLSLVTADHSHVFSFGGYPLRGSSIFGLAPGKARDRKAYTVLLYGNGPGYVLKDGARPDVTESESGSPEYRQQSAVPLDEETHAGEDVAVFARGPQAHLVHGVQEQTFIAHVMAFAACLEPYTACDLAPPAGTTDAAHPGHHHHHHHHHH
T1 sequence (P54764 20-547): as the sequence (chain, as listed by the source) above, with S406N counted along it
T5 sequence (P54764 20-547): as the sequence (chain, as listed by the source) above, with S406N counted along it

IC50 [1]: ~1.9 nM
IC50 of suppression of EphA4 autophosphorylation induced by mouse EphrinA1 in the hippocampal neurons [2]: 24.2 nM
Kd [3]: 0.729 nM
EC50 (read off the curve) [4]: ~100 pM
EC50 (read off the curve) [5]: ~100 pM
EC50 (read off the curve) [6]: ~100 pM
EC50 (read off the curve) [7]: ~100 pM
B1: antibody A (antibody, mouse IgG1, kappa, V domains shown)
VH: QIQLVQSGPELKKPGETVKISCKASGYTFTDYSMHWVKQAPGKGLKWMGWINTETGEPTYADDFKGRFAFSLETSASTAYLQINNLKNEDTATYFCARIPLYYYGSRYWYFDVWGAGTTVTVSS
VL: DIQMTQSPASLSVSVGETVTITCRASENIYRNLAWYQQKQGKSPQLLVYAATNLADGVPSRFSGSGSGTQYSLKINSLQSEDFGSYYCQHFWGTPWTFGGGTKLEIKR
notes: mouse IgG1 heavy chain, kappa light chain; purified from hybridoma supernatant; also called anti-EphA4 monoclonal antibody; antibody A-IgG
